Tested on: MS2 coat protein
Assay: apparent KD of MS2 coat protein; designed switch direction (-1 OFF switch, 1 ON switch): 1; higher = weaker reporter binding
In short: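 Normalised cluster fluorescence was curve-fitted, and each design's median over clusters is its apparent KD. Before this, SNAP-549-labelled MS2 coat protein was titrated from 0.7 or 1.5 nM, doubling to 3 µM, over RNA switches transcribed on Illumina chips by stalled E. coli RNA polymerase. Titrations had no input, 200 uM small-molecule ligand, or an oligonucleotide input, and steps lasted 0.8–1.5 h (lowest) to 10–20 min (highest).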

[1] = input ligand: microRNA oligo, concentration not stated
[2] = Eterna round: R95, input ligand: FMN 200 uM
[3] = Eterna round: R95, input ligand: microRNA oligo, concentration not stated
[4] = Eterna round: R95, input ligand: none

Row | Sequence | apparent KD of MS2 coat protein [1] [nM] | apparent KD of MS2 coat protein (input ligand: FMN 200 uM) [nM] | apparent KD of MS2 coat protein (input ligand: none) [nM] | apparent KD of MS2 coat protein [2] [nM] | apparent KD of MS2 coat protein [3] [nM] | apparent KD of MS2 coat protein [4] [nM]
1 | UGUUGUAUUACAGGAUAUCUAGUAUGUUUAUUUAGAGAAGGGUAUUCACAUGAGGAUCACCCAUGUAUAUACGAGGAAGUUGUG [JMF's solution 38] (Eterna round: R96, puzzle: Same State NG 1) | 30.8 |  |  |  |  | 
2 | UGGAUCUAGGCUUGCCUGGGUCCAUGCUGACAUGAGGAUCACCCAUGUGCAUCCUACAAGCUUUUUGCUUGUCUGCC (Eterna round: R96, puzzle: Sensor for hsa-mir-208a) | 267 | 416 | 216 |  |  | 
3 | UGAGCCGGCACUGAGGAUAUUCAUAUUUAAACAUGAGGAUCACCCAUGUAGGCCAGAAGGCCUUGGGAGAAGGCAGGUCGGCUCC [salish99_ss2_r3_079] (puzzle: Same State 2) |  |  |  | 25.7 | 264 | 459
4 | AUUAAUUAAUUAAUACAUGAGGAUCACCCAUGUAAUAAGAUCUAGGAUAUCAGCUCGAAUAGAGCUGAGAAGGAGAUCACAUGU [SSNG3/17-A1] (Eterna round: R96, puzzle: Same State NG 3) | 31.1 |  |  |  |  | 
5 | AUUGCUUACGCAGGAUAUGAUGCGAAAAUUGCGUCAGAAGGGUGAAGUGACUCGUAGCAACAAGACAUGAGGAUCACCCAUGUC [SameState NG1 #93] (Eterna round: R96, puzzle: Same State NG 1) | 26.4 | 28.2 | 42.1 |  |  | 
6 | AGUCCAGCCUGAGCUGGACAAAUGCAAGUACAUGAGGAUCACCCAUGUUCAUGUACAAGCUUUUUGCUCGUCUUAAA [JL zipper 59] (Eterna round: R96, puzzle: Sensor for hsa-mir-208a) | 21.3 | 853 | 931 |  |  | 
7 | AAACCACAUGAGGAUCACCCAUGUGAUAAAAGCAUAGGAUAUCUGGAUGUGAGAGGCGGCAGAGAAGGAUGCACGC [Laoror] (puzzle: Same State 1) |  |  |  |  | 58.2 | 
8 | ACUCUCACAGUAGGAUAUGUAGGAUAUGCCUACAUGAGGAUCACCCAUGUAAACAUGGCAGAAGGACAGAAGGACUUACAUUGG [pwkr ssNG2 2FMN + 1F5.2] (Eterna round: R96, puzzle: Same State NG 2) | 197 | 31.7 | 408 |  |  | 
9 | UUGCGGGCUUGAGGAUAUUGAGUACAUAUGUUUAACAUGAGGAUCACCCAUGUGGGUUGCGGUAUCGAGAAGGUAACUUCCUCC [salish99_SSNG2_r04_809] (Eterna round: R96, puzzle: Same State NG 2) | 124 | 169 | 163 |  |  | 
10 | CCAUAACAGUGAGGAUAUUGUUGCGAUAAGUGACGAGAAGGCAUUCAUGUGAAAUAAACAUACAUGAGGAUCACCCAUGUUGUA [Omei SS(NG)1 Bv2] (Eterna round: R96, puzzle: Same State NG 1) | 19.8 | 17.9 | 26.7 |  |  | 
11 | GGCAAUCGCAUUCGAUUGCCUGAGCAUGUACAUGAGGAUCACCCAUGUCAUGUACAGGCUUUUUGCUCGUACUUAUA (puzzle: Sensor for hsa-mir-208a) |  |  |  | 91.6 | 14.9 | 135
12 | UAUUAAUCUGUAGGAUAUCUAGGAUAUGGACGAGGAUCACCCGAGCAGCAUCAGCGCACCAGAGGAGAGAAGGACGCUUUGGUG [pwkr ssNG2 2F5 2FMN.2] (Eterna round: R96, puzzle: Same State NG 2) | 208 | 325 | 367 |  |  | 
13 | ACAUGAGACUGAGGAUAUGUUGUACCUACAUGUGACAUGAGGAUCACCCAUGUGGUAAGUAUGAUACAGAAGGCAGAGAUAUGU [Equivalance 63 - Jieux - Same State NG 2] (Eterna round: R96, puzzle: Same State NG 2) | 14.5 | 14.2 | 22.1 |  |  | 
14 | ACAAGACAUGAGGAUCACCCAUGUAUAAAUUACACAGGAUAUCGGCGGACCGCACCCGCACGAGAAGGGUGACUUC [Eszaleer] (puzzle: Same State 1) |  |  |  | 472 | 34.1 | 24.7
15 | CUCCCACGUGCACAGGAUAUGCCGGGAUGCACAUGAGGAUCACCCAUGUAAUCCUGAAAAUAAAAGCAGAAGGGUGAUCAUGGGU [Teestege] (puzzle: Same State 2) |  |  |  | 36.1 | 11.6 | 10.2
16 | AUUUGCGCUAUAGGAUAUGGCAGGGUGAACCAGCCAGAAGGAUAAGUAGGGAGGUGACAUGAGGAUCACCCAUGUAAUAAGGAA [Eternabot solution 6] (Eterna round: R96, puzzle: Same State NG 1) | 290 | 330 | 378 |  |  | 

Row | Sequence | apparent KD of MS2 coat protein [1] [nM] | apparent KD of MS2 coat protein (input ligand: FMN 200 uM) [nM] | apparent KD of MS2 coat protein (input ligand: none) [nM] | apparent KD of MS2 coat protein [2] [nM] | apparent KD of MS2 coat protein [3] [nM] | apparent KD of MS2 coat protein [4] [nM]
17 | AGCUAGUACCGAGGAUAUACAUACAUGAGGAUCACCCAUGUAUACAUGAUUUAAUGAGACUACAUGUAGAAGGCGGUACUAGCA [JL SSNG2 1.23] (Eterna round: R96, puzzle: Same State NG 2) | 68.6 | 22 | 79.1 |  |  | 
18 | AUAGUUUCCGAAGGAUAUGAUGAGGAUCACCCAUCAGAAGGUUGGCUAUUGGGUGGACAUGAGGAUCACCCAUGUCUUUCUGUU (Eterna round: R96, puzzle: Same State NG 1) | 39.1 | 29.7 | 53.6 |  |  | 
19 | UGUACCUGCACAGGAUAUCAUGCGAAAAUUGCGUGAGAAGGGUGAAUACUGUCUUUCUAAGAGUACAUGAGGAUCACCCAUGUA [SameState NG1 #61] (Eterna round: R96, puzzle: Same State NG 1) | 91.8 | 156 | 119 |  |  | 
20 | GCUCGAUGAGCGAUUUACAUGAGGAUCACCCAUGUACGUGGGCAGGAUAUUUACGUGCGGUGUGUAGAGAAGGGCCCAUCGAGC [SameState NG3 #71] (Eterna round: R96, puzzle: Same State NG 3) | 206 | 62.5 | 332 |  |  | 
21 | UGGUACAUGGGAGGAUAUCAUGUAGAAACAUGAGGAUCACCCAUGUUGAUGGAGACAUCGGAGAUUGAGAAGGCCCAUGUACCU [JL SSNG1 3.57] (Eterna round: R96, puzzle: Same State NG 2) | 33.6 | 15.6 | 46 |  |  | 
22 | GGGAGACAUGAGGAUCACCCAUGUGAGAAGAGGCGAGGAUAUCGAAAAAAAAAAAAAAAACGAGAAGGCGCGAGAU [salish99-SS1-004] (Eterna round: R96, puzzle: Same State 1) | 133 | 43.5 | 115 |  |  | 
23 | GGAGCCGGCCUAGGAUAUUUCAUUAAAAAACAUGAGGAUCACCCAUGUAGGCCAGAAGGCCUUGGGAAGAAGGAGGUCGGCUCC [Loop Effect - U24] (Eterna round: R96, puzzle: Same State NG 2) | 16.2 | 12.7 | 24.6 |  |  | 
24 | GUUACAUGAGGAUCACCCAUGUAUGUGUGGGAGUAAGUGUCUUAGGAUAUCUAUGAUUUAAUUAAAGAGAAGGAAGAUUGUUGU [JMF's solution 83] (Eterna round: R96, puzzle: Same State NG 3) | 85 | 154 | 103 |  |  | 
25 | ACAUGAGACGGAGGAUAUCUUGUACCUACAUGUGACAUGAGGAUCACCCAUGUGGUAAGUAUGAUAGAGAAGGCCGAGAUAUGU [Equivalance 57 - Jieux - Same State NG 2] (Eterna round: R96, puzzle: Same State NG 2) | 15 | 16.1 | 25.4 |  |  | 
26 | ACAUGAGAUUGAGGAUAUAUUGUACCUACAUGUGACAUGAGGAUCACCCAUGUGGUAAGUAUGACAUAGAAGGCAGAGAUAUGU [Equivalance 84 - Jieux - Same State NG 2] (Eterna round: R96, puzzle: Same State NG 2) | 107 | 67.7 | 75.3 |  |  | 
27 | UGAAUAGUGAUAGGAUAUACAUGAGGAAUCCUCGUAGAAGGAUCAUAACAUGAGGAUCACCCAUGUAGCCGUCGAAAGACGGCA [Mat - Same State NG 1 - JL mod - D58] (Eterna round: R96, puzzle: Same State NG 1) | 72 | 200 | 122 |  |  | 
28 | UUGCAGUCAGGUGAGGAUAUCAUGAAUUUAACAUGAGGAUCACCCAUGUGCUGCCUUGCAGCAUAUGAGAAGGCACCUGGCUGCU [JL-ss2-3.02 Brourd Mod] (puzzle: Same State 2) |  |  |  | 106 | 923 | 859
29 | AAGUUAAGCUUUUUGUUCUGCCUAUUCUGACAUGAGGAUCACCCAUGUGGUCGAACGACUACGUGUGUAGUUGAGAU [JR_SHM208A_Sub030] (Eterna round: R96, puzzle: Sensor for hsa-mir-208a) | 341 | 493 | 550 |  |  | 
30 | CGACCAAUUGUUUAAUAAACAUGAGGAUCACCCAUGUUUCGUGAGGAUAUCUAGGGUGAAGCACGGGAGAAGGCACUACGGUCA [Eternabot solution 21] (Eterna round: R96, puzzle: Same State NG 3) | 120 | 142 | 134 |  |  | 
31 | AUAAGGCAAGCUUUUUUCUCGUAGUGUAAACAUGAGGAUCACCCAUGUGCCCACCCUGGAUCUUUGGAUCCCAGAAC [Sobeedbeon] (puzzle: Sensor for hsa-mir-208a) |  |  |  | 23 | 15.3 | 22.4

Reference: the supplement of paper PMC9170038
